# Test results reported in PMC3408336.
# Columns and labels:
# [1] = target: SF162 gp120 D474N (HIV-1 SF162 (subtype B)); experiment: fluorescence polarisation; fluorescently labelled M48 or M48U1 with purified monomeric recombinant SF162 gp120 (concentrations standardised by ELISA with D7324); LJL Analyst reader; Kd by non-linear regression; results given as fold increase in Kd relative to native SF162 gp120; as in ref. 68
# [2] = target: SF162 gp120 G335R (HIV-1 SF162 (subtype B)); experiment: as above
# [3] = target: SF162 gp120 L494V (HIV-1 SF162 (subtype B)); experiment: as above
# [4] = target: SF162 gp120 S375N (HIV-1 SF162 (subtype B)); experiment: as above
# [5] = target: CD4 mimetic miniprotein M48U1; experiment: fluorescence polarization; details: read off a plot
Substance,ratio to parent [5],further results
CD4 mimetic miniprotein M48U1 (designed binder),–,fold Kd relative to WT SF162 gp120 [1]: 1 fold; fold Kd relative to WT SF162 gp120 [2]: 1 fold; fold Kd relative to WT SF162 gp120 [3]: 1 fold; fold Kd relative to WT SF162 gp120 [4]: 1 fold
"SF162 gp120, wild type (monomeric recombinant) H105Y",3.8,–
"SF162 gp120, wild type (monomeric recombinant) G471R",3.8,–
"SF162 gp120, wild type (monomeric recombinant) V255M",9.6,–
"SF162 gp120, wild type (monomeric recombinant) S375R",1900,–
